We go through 3 variants from IntAct's records for PubMed 36931259.

First the molecules themselves.
B1: 14-3-3 protein sigma (Homo sapiens), P31947 (parent)
chain: MERASLIQKAKLAEQAERYEDMAAFMKGAVEKGEELSCEERNLLSVAYKNVVGGQRAAWRVLSSIEQKSNEEGSEEKGPEVREYREKVETELQGVCDTVLGLLDSHLIKEAGDAESRVFYLKMKGDYYRYLAEVATGDDKKRIIDSARSAYQEAMDISKKEMPPTNPIRLGLALNFSVFHYEIANSPEEAISLAKTTFDEAMADLHTLSEDSYKDSTLIMQLLRDNLTLWTADNAGEEGGEAPQEPQS
partner: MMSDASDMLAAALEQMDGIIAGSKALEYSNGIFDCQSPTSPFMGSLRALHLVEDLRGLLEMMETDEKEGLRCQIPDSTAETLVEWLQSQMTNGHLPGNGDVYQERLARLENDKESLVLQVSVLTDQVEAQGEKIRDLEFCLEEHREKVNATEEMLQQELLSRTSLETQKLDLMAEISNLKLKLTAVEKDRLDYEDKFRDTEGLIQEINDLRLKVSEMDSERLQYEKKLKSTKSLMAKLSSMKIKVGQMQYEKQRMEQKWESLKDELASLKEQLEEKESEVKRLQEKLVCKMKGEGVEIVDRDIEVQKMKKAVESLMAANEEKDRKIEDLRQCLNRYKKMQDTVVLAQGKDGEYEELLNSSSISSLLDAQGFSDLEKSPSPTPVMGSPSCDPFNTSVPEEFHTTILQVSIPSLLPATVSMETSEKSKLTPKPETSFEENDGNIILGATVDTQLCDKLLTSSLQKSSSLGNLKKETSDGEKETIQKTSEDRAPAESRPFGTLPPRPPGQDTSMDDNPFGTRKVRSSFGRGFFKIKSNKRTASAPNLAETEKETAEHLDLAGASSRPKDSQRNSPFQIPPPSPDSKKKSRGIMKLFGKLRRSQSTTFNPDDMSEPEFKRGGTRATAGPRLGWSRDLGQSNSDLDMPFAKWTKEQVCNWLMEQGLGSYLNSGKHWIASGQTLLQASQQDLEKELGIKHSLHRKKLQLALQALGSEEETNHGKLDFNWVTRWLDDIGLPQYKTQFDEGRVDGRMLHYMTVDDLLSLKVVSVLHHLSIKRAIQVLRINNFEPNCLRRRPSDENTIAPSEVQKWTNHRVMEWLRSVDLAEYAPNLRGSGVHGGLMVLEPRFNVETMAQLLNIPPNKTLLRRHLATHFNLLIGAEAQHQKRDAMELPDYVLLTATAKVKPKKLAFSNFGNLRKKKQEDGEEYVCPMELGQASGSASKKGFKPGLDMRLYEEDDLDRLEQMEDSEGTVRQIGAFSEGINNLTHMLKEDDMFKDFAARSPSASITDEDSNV
B2: 14-3-3 protein sigma (Homo sapiens), P31947 (parent)
chain: B1 chain
partner: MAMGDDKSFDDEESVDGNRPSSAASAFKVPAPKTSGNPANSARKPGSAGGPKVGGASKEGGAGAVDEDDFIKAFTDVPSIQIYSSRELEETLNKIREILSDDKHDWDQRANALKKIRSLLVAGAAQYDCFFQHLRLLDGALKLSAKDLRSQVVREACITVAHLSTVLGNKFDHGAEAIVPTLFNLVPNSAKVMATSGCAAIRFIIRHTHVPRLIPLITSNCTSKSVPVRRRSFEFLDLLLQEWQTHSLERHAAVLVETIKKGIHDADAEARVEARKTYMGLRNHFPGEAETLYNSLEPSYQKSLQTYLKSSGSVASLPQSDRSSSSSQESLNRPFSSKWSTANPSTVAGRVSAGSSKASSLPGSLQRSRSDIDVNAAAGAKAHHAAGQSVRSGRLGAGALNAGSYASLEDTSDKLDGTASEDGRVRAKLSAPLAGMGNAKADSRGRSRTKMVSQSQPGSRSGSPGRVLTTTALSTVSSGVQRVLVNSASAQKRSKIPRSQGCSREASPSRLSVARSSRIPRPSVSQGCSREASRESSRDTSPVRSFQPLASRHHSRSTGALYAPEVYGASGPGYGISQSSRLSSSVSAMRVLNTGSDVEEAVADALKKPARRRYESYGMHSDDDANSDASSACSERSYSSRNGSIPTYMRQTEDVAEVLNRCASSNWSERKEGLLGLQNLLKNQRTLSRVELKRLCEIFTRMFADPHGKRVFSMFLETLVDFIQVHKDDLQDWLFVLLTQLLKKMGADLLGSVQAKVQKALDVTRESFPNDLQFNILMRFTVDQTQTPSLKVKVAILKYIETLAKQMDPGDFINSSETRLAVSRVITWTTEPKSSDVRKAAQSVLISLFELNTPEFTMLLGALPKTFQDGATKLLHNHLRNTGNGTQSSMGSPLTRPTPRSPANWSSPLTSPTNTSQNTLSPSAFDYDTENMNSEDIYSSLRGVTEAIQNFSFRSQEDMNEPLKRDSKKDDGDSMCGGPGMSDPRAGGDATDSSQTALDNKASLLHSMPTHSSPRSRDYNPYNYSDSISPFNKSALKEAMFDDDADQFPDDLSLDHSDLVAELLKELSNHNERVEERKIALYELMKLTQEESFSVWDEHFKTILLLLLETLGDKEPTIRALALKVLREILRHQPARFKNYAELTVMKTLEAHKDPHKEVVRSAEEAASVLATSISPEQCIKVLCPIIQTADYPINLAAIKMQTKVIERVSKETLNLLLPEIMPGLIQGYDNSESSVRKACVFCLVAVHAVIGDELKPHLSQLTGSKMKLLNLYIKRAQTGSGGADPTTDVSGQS
B3: 14-3-3 protein sigma (Homo sapiens), P31947 (parent)
chain: B1 chain
partner: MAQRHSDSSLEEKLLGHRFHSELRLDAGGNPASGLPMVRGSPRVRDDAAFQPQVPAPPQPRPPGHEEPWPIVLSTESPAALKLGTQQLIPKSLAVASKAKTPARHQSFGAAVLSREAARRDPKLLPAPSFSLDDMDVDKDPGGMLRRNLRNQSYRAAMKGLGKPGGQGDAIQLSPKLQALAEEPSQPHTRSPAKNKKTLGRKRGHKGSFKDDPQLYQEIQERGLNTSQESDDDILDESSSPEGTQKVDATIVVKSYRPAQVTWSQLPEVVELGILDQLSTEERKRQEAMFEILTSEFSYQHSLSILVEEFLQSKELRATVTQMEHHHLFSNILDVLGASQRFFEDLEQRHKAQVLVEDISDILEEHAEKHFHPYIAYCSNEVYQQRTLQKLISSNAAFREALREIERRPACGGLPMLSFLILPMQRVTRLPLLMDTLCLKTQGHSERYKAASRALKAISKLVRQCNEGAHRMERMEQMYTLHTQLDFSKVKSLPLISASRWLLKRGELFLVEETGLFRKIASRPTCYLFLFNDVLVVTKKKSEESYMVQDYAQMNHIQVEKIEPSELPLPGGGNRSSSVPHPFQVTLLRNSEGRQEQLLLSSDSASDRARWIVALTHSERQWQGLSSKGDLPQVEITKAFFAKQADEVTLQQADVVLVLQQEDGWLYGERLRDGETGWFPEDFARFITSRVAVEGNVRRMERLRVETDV

Variants of B1 are the subject of the first assay. The conditions noted are these: with lipb1_human PPFIBP1, Q86W92.
Turning to MERASLIQKAKLAEQAERYEDMAAFMKGAVEKGEELSCEERNLLSVAYENVVGGQEAAWRVLSSIEQKSNEEGSEEKGPEVREYREKVETELQGVCDTVLGLLDSHLIKEAGDAESRVFYLKMKGDYYRYLAEVATGDDKKRIIDSARSAYQEAMDISKKEMPPTNPIRLGLALNFSDFHYEIANSPEEAISLAKTTFDEAMADLHTLSEDSYKDSTLIMQLLRDNLTLWTADNAGEEGGEAPQEPQS [K49E;R56E;V178D], the “effect of a mutation on the interaction” value is “decreasing interaction strength”.

In a further assay the parent is B2. The conditions noted are these: with clap2_human CLASP2, O75122.
As to MERASLIQKAKLAEQAERYEDMAAFMKGAVEKGEELSCEERNLLSVAYENVVGGQEAAWRVLSSIEQKSNEEGSEEKGPEVREYREKVETELQGVCDTVLGLLDSHLIKEAGDAESRVFYLKMKGDYYRYLAEVATGDDKKRIIDSARSAYQEAMDISKKEMPPTNPIRLGLALNFSDFHYEIANSPEEAISLAKTTFDEAMADLHTLSEDSYKDSTLIMQLLRDNLTLWTADNAGEEGGEAPQEPQS [K49E;R56E;V178D], the “effect of a mutation on the interaction” value is given as “decreasing interaction strength”.

Variants of B3 are the subject of another assay. The conditions noted are these: with arhgg_human ARHGEF16, Q5VV41.
Regarding MERASLIQKAKLAEQAERYEDMAAFMKGAVEKGEELSCEERNLLSVAYENVVGGQEAAWRVLSSIEQKSNEEGSEEKGPEVREYREKVETELQGVCDTVLGLLDSHLIKEAGDAESRVFYLKMKGDYYRYLAEVATGDDKKRIIDSARSAYQEAMDISKKEMPPTNPIRLGLALNFSDFHYEIANSPEEAISLAKTTFDEAMADLHTLSEDSYKDSTLIMQLLRDNLTLWTADNAGEEGGEAPQEPQS [K49E;R56E;V178D], the “effect of a mutation on the interaction” value is on record as “decreasing interaction strength”.
